This data set concerns the molecule itself. Description: SEC; in vitro acid screen of purified VLPs; HPLC SEC peak height relative to pH 7.3 (normalized acid tolerance, n = 3).

B1: MS2 bacteriophage coat protein CP[T71H/E76C] (natural protein)
chain: ASNFTQFVLVDNGGTGDVTVAPSNFANGVAEWISSNSRSQAYKVTCSVRQSSAQNRKYTIKVEVPKVATQHVGGVCLPVAAWRSYLNMELTIPIFATNSDCELIVKAMQGLLKDGNPIPSAIAANSGIY
notes: MS2 bacteriophage coat protein (MS2 CP); also called CP[T71/E76C]; double mutant
Take B1: the binding result is listed as “binds”.

The values above are taken from publication PMC5895741, “Quantitative characterization of all single amino acid variants of a viral capsid-based drug delivery vehicle” (Nature Communications, 2018).
